The data set is described as follows: soluble on expression in E. coli; label from the status in PepcDB or PDB records.
As for “MMTKTQINKLIKMMNDLDYPFEAPLKESFIESIIQIEFNSNSTNCLEKLCNEVSILFKNQPDYLTFLRAMDGFEVNGLRLFSLSIPEPSVKNLFAVNEFYRNNDDFINPDLQERLVIGDYSISIFTYDIKGDAANLLILEHHHHHH”, the “soluble on expression in E. coli” value is “not soluble”.

In the case of “MSLKKSDATGGEVASAEPIAKIPAPAGKAWTETFSVTPDGGYLLGNPDAPIKLIEFGALSCSHCAEFSEKGFPKLRDEYIASGRVSYELRLFLLNALDMPAVLLATCGAPEAVIPLSEQFWAWQPNMFSNLQKDEAAFQQISNLPAEKRFAGIAQLGGLSEFFASRGIAAAQGATCLADTAKATRLATVNDQWGKEYDITGTPTFFLNGSKTGVATWAELEPMLQKAGAREGHHHHHH”, the “soluble on expression in E. coli” value is “soluble”.

In the case of “MDMPHSTTHDASPAPCQRCGMAGATCCTIDPTDASLCFPVSRSEWERIVDHCDKRGGFATEPNTRPFVDNLIRLFPGEAREIERLFPPHGFHLRLAVDAKGNCAFLGPEGCTLPREVRPWYCLVFPFWLQGGRIAIFTPSGCVAVREGRTVPGCLALMNFTARDVRRLAGRLRLAWGLPPLDENGETLLEHHHHHH”, the “soluble on expression in E. coli” value is recorded as “not soluble”. Turning to “MDNGHIEETNNVEIDPATGGAVMSFSYASDFPTLPDAAPASAPTAKQTHVWSRPTLSKSEVNITFRLASDERSNKVKSFGSTSEESKKAQAIATATKTRIELSESKDGELTVVVKGERAKAEEARARIIRDLQTQASREIDIPKDHHGRLIGKEGALLRNLEAETNCRIQIPNRDGPSSKITITGPREGIQRAAAHILAVSEREAKLATEHIVCPKNLVAFVRGPKNETYDRLTQNNGVKINIPPPHVTNEVISVTGEKDGVLRVAAEIRQIIESKKNVSSIQVAVARTQHRYIVGQSRSGIHDVLQKTGCVVEVPAEDSGSDQVTLIGNAQDLAKALALVIERASSVVTQSISAPNWLHKHLIGPKGATLTALVPNRNNVQIEFDNSNQIFLEGSPEEVKLAFEPLSKEVARLQMELAIEKVKVHPTLHRHVIGRGGSLISKIKDQHGVQITIPNEETNSDEIVVEGKKEGVKKAVTEIRAIVTKIENEKSRDIIIPQRLHKLIIGSKGSGVQVIRDSHPNVSVVFPDAKSKSDVVNIRGDKTEVDAVYKKLTALSKEYAENNYQQTVAIFKEFLKHIVGKGGASIRKLRDETETRIDLPESGSDDGKITVTGKQANVEKAVAQLNKIQEELANVAEESIEIPQKVQSRFFGNGRRLISDIEDECGGVHIRFPSEKSESTKVTIRGPAGDVAKAVGLLSALAKDKEENYVEDTVKAKPEFHRFLIGKGGSKIAKLRDTLNVRVMFPKEGDAEKETIHLLGKKEDVPKAKAALEDAIKQLSETVDIKITVDPKYYKNFLARGAALVKEIQEQNGGVVISFPKNGTDSSEVSIRGSKQCVEAAKNRIEDVVEDYEKQITDNVTIPAQFHRGLLAGRGAKIHELQSKYNVSIRFPNNREEGSEGSDQVTVSGRDTKVEEAKEALLAMVPISKVIQLPVDMHRSIIGRGGETVRKLMQDYDVNISIPKDNSSEDITVTGQTENVDQALEALRGKLGEYEAQAEDRKLKQWSMSINVPTDYHQKIIGQRGATITALKEKYGVIINVPREDGNETITIQGYEEKANECAAAIEEMISELRSMFTQEISLDARYHPRLIGQRGKNLKKVMEDYRVEIRLPRQGAEDPNLVVVAGKDENDVYDCIDHLRAEEEEFLLDNVERTQYMSPRQQESNNTRHHQQPTSVQMKGAPWQLDLGSSEQFPDMGPAAGSSAAVGGAGAWGSSRRW”, the “soluble on expression in E. coli” value was “not soluble”.

In the case of “MADSDLPTKGRQRGVRAVELNVAARLENLALLRTLVGAIGTFEDLDFDAVADLRLAVDEVCTRLIRSALPDATLRLVVDPRKDEVVVEASAACDTHDVVAPGSFSWHVLTALADDVQTFHDGRQPDVAGSVFGITLTARRAASSR”, the “soluble on expression in E. coli” value is “not soluble”.

Turning to “MSLELFKSVKLDKNSGTPLYMQLSDKIAEMIENGILPADLKLPSIRQMSALLNVNSVTIVSCYKHLETKGYVYSRPGSGTYVAVVLPKQSENYSDRNIILDELYQSDDLNLINNGHIKINENTINFASATPKSSLFPVENFKLVLNEVLDRDRGNAFDYQDSQGYYPLRSSVRILLEKRKIACHEENIQIISGAQQGIDIIAKALLRQGDYVITESPTYTGAIAVFKSRGAEIADVPLSCDGPNLNILEYNLKKYKPKLIYTIPSFQNPTGISYSNEKRKEILALAERYDAYIIEDDYVSGLDFENMGFATVKSMDKSDRVIFLKSFSKIFMPGLRLGFMVVPSSLKSYIIEAKHATDISTSGLIQRAFDLYIRKGMWDGHFKLMFNIYKERYYKTIEALERHLPQNVQFHKPGGGLNIWLELPANCFTGSLLKAASAENIVFAPGRIFYSSTPTNLNNIRLSFAAVDADEIERGIEKLSELILRFDRNKSEGHHHHHH”, the “soluble on expression in E. coli” value is on record as “soluble”. To “MEGTLSFVSGFAPAVYRRELFRHRCVTTAPEARAWPRLGLLRANSGARLSRVDITPEIYKRLVSMAKRTEGNFSAVAGAILESYLTAATNRDLRAVIFDMDGVLCDSERLSRAAGVEYFRRYHGVWPTEKDFADFAGTGEAAFLSGVARRYSVKDFDVNKAKEGFFNIYVNEYVSALEPFEGVREFIQQIKTMGLKTALASSADAIKVHANLSAIGFERDMFDFVTRSDEIANKKPAPDIFLAAAEGLGVPPESCVVIEDAPAGVLAAKRARMRCVAVATSVSAQLLWDAGADIVRPAPQYIMLDDIVITDDADASAPASASQE” belongs “soluble”.

Consider “MSAIIDPSTGKPFKADKQIMGEDIARAYTTGIRNPRPTSVASTITPQRLAGVLRSVIDGNDPEAYMTLAEEIEERDLHYAAQLRTRKFAVAAITPTVEAASDDAIDVLMAERAREIINDDQIPELFFDLLDGLGKGLAVVQILWDTKSTPWKPQDYKWVDPRYLRQDQQTLEQILLISEDAPMGAELEPYKFIIHTPRSKSGSVWRNGLARLVAVMYMLKSFTVRDWWAFAEVFGVPVRVGKYGANASESDISTLINAIGRIASDAGAVIPESMKLELIETAKGNGGDTLFENMARWCDEQISKAVLGQTMTADNGSSQSQATVHNEVRIDIAKWDARQLEASINEYLIKPYIILNWGEQLRYPKVRIKVPEPEDLQLLVNSLTPLIDRGLKVSASEMADKLGLGTVDADEDILLPFQTVGIQAMPTALNRANSQTIAINQVRNTAEREIDNLANEAMGEWEQVAEEFMNPIIDLANKSASYDEFAAGLPALQQQLGAEQFIAQMAQYMFQLRGLGDAQDG”, for which the “soluble on expression in E. coli” value is on record as “soluble”.

Turning to “MGSDKIHHHHHHMAPDLASLQRISGDSAIDQWLQVPGSWVEEPNERRGGASGVQRVYTGDGRLLYRKQQTGHVYRDWQRPFGYPTAMRERDALRAFESLGIRVPRLVYSGCRKVDGQWQALLVTEALEGFSSLDECYARGDQDRWGEAKHQRILQQIGATIARMNLAHWQHGCLYPKHIFVRVEGEAIEVALIDLEKSRRRLTVNKASQHDLKQLKRRSSWTGAQWQAFIYGYQTAFGSAIKGLQT”, the “soluble on expression in E. coli” value is on record as “not soluble”. For the sequence “MGSDKIHHHHHHMLNDRARILLKTLVERYISEGEPVGSRTLSKHAGLDLSPASIRNIMSDLEEMGFVASPHTSAGRVPTPRGYRFFVDTLLTVRPLDQVSVNHLENSLAASDPQRLMTAASTLLSDLSQFAGLVMTPRRNPAFRQIEFLTLSDKRVLLIIVTMEGEVENRVIVTEQSYSAAALTEAANYFNQNFAGHSFDHVRSKLRDELGRMRDDITRLMAAAVDAGTQALDASQDNVVVSGSRKLLDVEELSSNMRSLRRLFDAFEKKTGLLQLLDQSRSAAGVQIFIGGESELLPLDECSLVTAPYSVDGVVVGTLGVVGPTRMAYERVVPIVDVTAKILSSALSQHK”, the “soluble on expression in E. coli” value is given as “not soluble”. On to “MATRRRIGVAAIQKKQETANKFAAKGDQMAGEQLVQFSQQLEQLSAGLEMFAQRHRDEIKKNSQFRRHFQEMCASVGVDPLASSKGFWAKALGFGDFYYELGIQIVEICLSTTHINGGIMTVEEIRNRLMRTRSRTRKDTISTDDILRAVDKLKVLGNGFELVPLGGGRFLVQSVPGELSMDHSRVLQLAEDAAYVTKELIIDKLRWDEARASSALEHLVKEGLAWTDEQASDTTQYWFPSLFLQQYCHSSSSTSVSESLHSMSFNNYQ”, for which the “soluble on expression in E. coli” value was “not soluble”. For “MGSDKIHHHHHHMYDVLIIGAGPAGSSLARLIGDKYKVLLIDKRDLANENPHNLAGKCCGGLLAPDAQKMIAKLGLGIPKDILVNPQLFAVRTIDLTNNLERLYQRFYLNMDREKFDRWLVSILPKKVDKKFNAVFKDFVEIPGGYEVKYIHNGQEISAKTRVIIGADGAFSKLRRFLNQDINGPEKYIAIQEWYECPHHVPYFTAIFDEEISDFYSWIIPKENYLLLGSALKPKEKAREKYELLKTKLTQRGFNFDNKIRTEGAYLYRPKKVSQFYAGRDSIALVGEAAGGISPSSAEGISYALKSSAYLAQSLEEGIDGFLDRYKLKVKGIKLNLLLKNLKSPAMYNPLLRQLAMKSGLQSIDRTE”, the “soluble on expression in E. coli” value is “not soluble”.

Turning to “MIKNLITQQEGKTLEFKRDLSSPKSLLKSIVAFANTAGGHLIIGVNDERQIIGVEHPLDEEERLCNLIADSISPRLIPSIELVTLNNKTLLVIEVFVSNTGPHWINSEGSTQGIYVRLGSTNRQADQELITELHRRSEGVNFDEMPMPQLSVDDVDITKAQELFSDIKSLNEKNLLTLKLITSHQGKLVPTKGAILLFGKERNTYFPDAWVQCGRFIGKDKSRIFDHVDIYDYLPDAVESIMMFLKKHALRGADFSAVQRKDIWSIPLVMLREAVINALVHTDYSQRGAPIRISFFDDRIEIENPGILLPGLTIEDMRQGISKIRNHVIARVFRELNLIEQWGSGVSRIYSEAIEQKLQEPEIIEIGMRIRFIIYLAQGIPIDSTFDKRDKQLESRLESRLESRLESKLAARVIQVLQNGEAGKIQIARSLGHQTVSGELHKQIKQLLKLEIIEMTIPDKPNSRLQKYRLTNKGIDLINIIQRELAAALEHHHHHH”, the “soluble on expression in E. coli” value is on record as “not soluble”.

For the sequence “GMTDGEAVSAAAGPGAEGPPGPVGHWAPGSHILWRYRENGGPHVHIARPVTVVRDDADLLAVWLAPGTECVKPVLADGTPVHLEPLATRYTKPRTVQRDQWFGTGVLKLARPGEAWSVWLFWDPGWRFKNWYVNLERPLTRWEGGVDSEDHFLDISVHPDRTWHWRDEDEFAQALRDGLMDPASAGRVRRAGRSAVAEIRAWGSPFADGWEHWRPDPAWPVPSLPGDWDRTPAHVSS”, the “soluble on expression in E. coli” value is on record as “soluble”. On to “SLLPNILLTGTPGVGKTTLGKELASKSGLKYINVGDLAREEQLYDGYDEEYDCPILDEDRVVDELDNQMREGGVIVDYHGCDFFPERWFHIVFVLRTDTNVLYERLETRGYNEKKLTDNIQCEIFQVLYEEATASYKEEIVHQLPSNKPEELENNVDQILKWIEQWIKDHNS”, for which the “soluble on expression in E. coli” value is on record as “soluble”. For “MIILQGNKLERSFSGDVLFQNISLQVDERDRIALVGPNGAGKSTLLKLLVGEETPTSGEVNTKKDLTLSYLAQNSRFESDQTIYEEMLKVFEALRQDEKRLRQMEMDMATVSGQVLTRLMTDYDLLTEHFRQQGGFTYESDIKAILNGFKFDESMWQMTIAELSGGQNTRLALAKMLLEKPELLVLDEPTNHLDIETIAWLENYLANYQGALIIVSHDRYFLDKVATVTLDLTPNGLDRYSGNYSRFMALKAEKLVAEEKQFDKQQKEIAKLEDFVQKNIVRASTTKRAQARRKQLEKIERLDKPTGGRKSAHMTFHAEKPSGNVVLRVEEAAIGYGDQVLSEPINVDINKLDAIAVVGPNGIGKSTLIKSIIGQLPLLKGQLKYGANVETGYYDQTQSHLTSSNTVLEELWQDFSTTPEVDIRNRLGAFLFSGDDVKKSVAMLSGGEKARLLLAKLSMENNNFLVLDEPTNHLDIDSKEVLENALIDFDGTLLFVSHDRYFINRLATKVLEITENGSTLYLGDYDYYLEKKAELEELARLAAGETVEETKEASATDYQLQKANQKERRRLTRRYEEIEARLETIEERIGAIQEDMHASNDTAQLIAWQKEWDQLDQEQEALMEEWETIAEQIES”, the “soluble on expression in E. coli” value is reported as “not soluble”.

For the origin of these results see the DeepSol protein solubility set.
